Measured values as given in paper PMC7746637 (Nature chemical biology, 2020).
Read-outs that look alike come from different tables or passages of the source. Blank lines part the entries; values can stand above or below the molecule they belong to.

Assays:
Experiment in all cases: native MS
[1] = molecular target: K2P4.1a (TRAAK, shorter isoform, truncated, residues 1-264), tags removed (human)
[2] = molecular target: the molecule itself
[3] = molecular target: the molecule itself; remark: listed apart in the source

stoichiometry N [1]: 2
Molecule: K2P4.1a (TRAAK, shorter isoform, truncated, residues 1-264), tags removed (domain or fragment)

B1: K2P4.1b (residues 1-290) as a C-terminal fusion to mCherry, Strep-tag II and His6 (pPIC-K2P4.1b-mC-S-H) (domain or fragment, human, UniProt Q9NYG8-2 1-290, looked up)
chain: MTTAPQEPPARPLQAGSGAGPAPGRAMRSTTLLALLALVLLYLVSGALVFRALEQPHEQQAQRELGEVREKFLRAHPCVSDQELGLLIKEVADALGGGADPETQSTSQSSHSAWDLGSAFFFSGTIITTIGYGNVALRTDAGRLFCIFYALVGIPLFGILLAGVGDRLGSSLRHGIGHIEAIFLKWHVPPELVRVLSAMLFLLIGCLLFVLTPTFVFCYMEDWSKLEAIYFVIVTLTTVGFGDYVAGADPRQDSPAYQPLVWFWILLGLAYFASVLTTIGNWLRVVSRRT
stoichiometry N [2]: 2

B2: K2P4.1b (TRAAK, longer isoform, truncated, residues 1-290), expressed with tags at both termini, tags removed (domain or fragment, human, UniProt Q9NYG8-2 1-290, looked up)
chain: B1 chain
stoichiometry N [3]: 2
